Reference: US8877206B2, “Stimulation of an immune response by cationic lipids” (PDS Biotechnology Corporation, priority 2007, dated 2014)
Ends that are not written are not given here.

Columns and labels:
[1] = E7 peptide association with the liposome; format: physicochemical; conditions: 0.7 mg lipids and 0.1 mg E7 per mL (molar ratio=11:1)
Description: All lipids were purchased from Avanti Polar Lipids (Alabaster Ala.). Small unilamellar DOTAP, DOEPC, and DOTMA liposomes were prepared by thin film hydration followed by extrusion. The lipid, with or without a drug, in chloroform was dried as a thin layer under a stream of nitrogen in a glass tube. The thin film was vacuum desiccated for 2-3 h and then re-hydrated in cell culture grade water (commercially available from Cambrex of Walkersville, Md.) or buffer containing E7 peptide to a final concentration of 0.7 mg lipids and 0.1 mg E7 per mL (molar ratio=11:1). The lipid dispersion was sequentially extruded through polycarbonate membranes with pore size of 0.4, 0.2 and 0.1 μm. The un-entrapped peptide was not removed. The liposomes were stored at 4° C. until use. E7 peptide association with the liposome was determined by measuring the percentage of liposome-bound peptide. In brief, unbound E7 peptide from DOTAP/E7 or DOTAP/E7/drug (MAP kinase inhibitor) complexes was separated by a Microcon® centrifugal filtrate devices (Millipore, Bedford, Mass.) and the concentration of unbound peptide was measured by Micro BC™ Protein Assay Kit (Pierce, Rockford, Ill. The efficiency of peptide association was determined as percent […] peptide. Approximately 30% of E7 peptide was associated with the liposomes.

[2] = Peptide entrapment efficiency in DOTAP liposomes (LavaPep); format: physicochemical; conditions: molar ratio lipopeptide: DOTAP = 1:40, mean±SD (n=3)
Description: Cationic lipid/antigen complexes were prepared as described above. Peptide encapsulation efficiency was determined by the percentage of the liposome-bound peptide using LavaPep™ peptide quantification kit (commercially available from Fluorotechnics of Sydney, Australia). Since unincorporated lipopeptide aggregated and could not pass the exclusion filter, the incorporated lipopeptide was measured as the amount associated with the extruded liposomes in the presence of 1% SDS and reported as the mean±SD (n=3). For water-soluble peptide such as native E7 and KSS-E7, the unbound peptide was separated from the complex by a Microcon® centrifugal filtration device (commercially available from Millipore of Bedford, Mass.). The concentration of the unbound peptide was measured using LavaPep™ according to the manufacturer's instruction.

[3] = molecular target: T1, H-2D^b molecules on RMA-S cells (Mus musculus, UniProt P01899); assay: MHC class I binding on RMA-S cells, H-2D^b; format: cell-based; conditions: peptide 10 μM, overnight 27° C. then 2 h 37° C.; FIG. 13
T1 construct: it caused a four-fold up-regulation of H-2D^b molecules on RMA-S cells compared to the control; endogenous in cells; host or cells: RMA-S mouse lymphoma cells
T1 sequence (P01899 25-362): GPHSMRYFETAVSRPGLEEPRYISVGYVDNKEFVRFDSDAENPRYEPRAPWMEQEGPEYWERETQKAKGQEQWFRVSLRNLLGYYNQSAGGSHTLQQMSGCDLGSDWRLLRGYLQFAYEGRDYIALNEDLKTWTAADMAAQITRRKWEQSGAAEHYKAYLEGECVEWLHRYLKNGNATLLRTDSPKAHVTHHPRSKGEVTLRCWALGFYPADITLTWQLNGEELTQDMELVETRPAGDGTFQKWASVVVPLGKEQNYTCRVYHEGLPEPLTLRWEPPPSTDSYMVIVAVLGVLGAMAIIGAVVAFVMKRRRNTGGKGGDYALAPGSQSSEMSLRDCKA
T1 sequence (P01887 21-119 partner): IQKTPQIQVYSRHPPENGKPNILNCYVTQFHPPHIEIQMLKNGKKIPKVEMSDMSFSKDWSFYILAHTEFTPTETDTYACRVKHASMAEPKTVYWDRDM

[4] = molecular target: T2, H-2K^b molecules on RMA-S cells (Mus musculus, UniProt P01901); assay: MHC class I binding on RMA-S cells, H-2K^b; format: cell-based; conditions: peptide 10 μM
T2 construct: endogenous in cells; host or cells: RMA-S mouse lymphoma cells
T2 sequence (P01901 22-369): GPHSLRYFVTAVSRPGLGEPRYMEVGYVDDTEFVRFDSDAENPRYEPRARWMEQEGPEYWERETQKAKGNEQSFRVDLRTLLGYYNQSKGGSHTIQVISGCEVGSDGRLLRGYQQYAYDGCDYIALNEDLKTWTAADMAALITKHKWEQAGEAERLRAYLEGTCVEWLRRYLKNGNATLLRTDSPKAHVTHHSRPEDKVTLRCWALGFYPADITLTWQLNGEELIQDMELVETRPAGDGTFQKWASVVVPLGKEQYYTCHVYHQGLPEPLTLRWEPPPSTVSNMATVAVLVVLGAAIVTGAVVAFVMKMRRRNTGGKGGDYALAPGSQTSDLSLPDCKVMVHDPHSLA
T2 sequence (P01887 21-119 partner): T1 sequence (P01887 21-119 partner)

TC-1 tumor = assay: TC-1 HPV-positive tumor growth in treated mice; format: in vivo, C57BL/6 mice; conditions: formulated in the DOTAP/antigen complex; FIG. 11
CD8+ T cells = assay: IFN-γ producing CD8+ T cells in spleen after immunization; format: in vivo, mice; conditions: formulated in DOTAP liposomes; 5 nmol peptide; FIG. 12

Substance | E7 peptide associated with the liposomes [1] | Entrapment efficiency (%) [2] | Entrapment efficiency (%) ([2]; listed as E7) | Up-regulation of H-2D^b molecules (mean fluorescence) compared to the control [3] | Up-regulation of H-2K^b molecules [4] | Anti-tumor activity compared with native E7 (TC-1 tumor) | Number of IFN-γ producing CD8+ cells vs native E7 in DOTAP liposomes (CD8+ T cells)
RAHYNIVTF [Native E7] | Approximately 30% | 27.1 ± 5.8% | about 25% | four-fold | No up-regulation | – | –
KSS-E7: E7 peptide RAHYNIVTF elongated with KSS (lysine-serine-serine) spacer, no lipid (not fully specified (N-terminus); also: KSS spacer added, end not given here) | – | 26.4 ± 6.1% | – | 8 fold | No up-regulation | superior anti-tumor activity | superior result than the native E7
